The record followed here is patent US20240158475A1.

Numbering of substitutions follows the chain as printed.

This test addresses DN-III quality control recombinant protein (produced by Fapon Biotech InC.) (dengue virus). The experiment in a line: BLI, AMC sensor, antibody captured. (In general: In BLI a coated tip is dipped into the sample, and binding shifts an interference pattern.)

B1: Mutation 1-23 (antibody, V domains shown)
VH: EVQLQQSGTELVRPGALVKLSCKASGFNIKDYYLHWVKQRPRQGLEWIGWIDPENGKTIYDPKFQDKASITSDTSTNTAYLQLRSLTSEDTAVYYCVTAYFRFVYWGQGTLVTVSA
VL: QIVLTQSPAIMSAFPGERVTMTCSASSSVRYMYWHQQKPGSSPRLLIYDTSNVASGVPVRFSGSGSGTSYSLTISRDEAMDAATYYCQQWSSTPRTFGGGTKLEIKR
By Kd is commonly meant the equilibrium constant for the complex coming apart. One may read the koff as the first-order rate constant of dissociation. A word on the kon: it is the second-order rate constant of association. With B1, the dissociation constant (Kd) turned out to be 0.46 nM, the dissociation rate constant (koff) was determined as 3.86e-05 s⁻¹ and the kon is 44600 M⁻¹ s⁻¹.

B2: Mutation 1-39 (antibody, V domains shown)
VH: B1 VH with L34V
VL: B1 VL with S27T, V53L, T93F
As to B2, the dissociation constant Kd stood at 0.83 nM, the off-rate constant (koff) is 3.75e-05 s⁻¹ and the on-rate constant (kon) was found to be 45100 M⁻¹ s⁻¹.

B3: Mutation 1-40 (antibody, V domains shown)
VH: B1 VH with L34I, I59L, F101V
VL: B1 VL
Regarding B3, the Kd is 0.115 nM, the dissociation rate constant (koff) came out at 4.95e-05 s⁻¹ and the kon worked out at 432000 M⁻¹ s⁻¹.

B4: WT 1-7 (antibody, V domains shown)
VH: B1 VH with D31E, L34V, E54D, F64V, T98S, F101V
VL: B1 VL with S27T, R30K, D49E, V57F, W90Q
With B4, the Kd is 3.7 nM, the off-rate constant (koff) worked out at 1.53e-05 s⁻¹ and the on-rate constant (kon) is 4090 M⁻¹ s⁻¹.

B5: Mutation 1-31 (antibody, V domains shown)
VH: B1 VH with L34I, I59L, F101V
VL: B1 VL with S27T, V53L, T93F
With B5, the dissociation constant Kd was 0.115 nM, the koff turned out to be 3.94e-05 s⁻¹ and the on-rate constant (kon) stood at 344000 M⁻¹ s⁻¹.

B6: Mutation 1-32 (antibody, V domains shown)
VH: B1 VH
VL: B1 VL with V53I
For the molecule B6, the Kd came to 0.35 nM, the koff turned out to be 1.23e-05 s⁻¹ and the kon stood at 35200 M⁻¹ s⁻¹.

B7: Mutation 1-30 (antibody, V domains shown)
VH: B1 VH with L34V
VL: B1 VL with V53I, T93Y
As for B7, the equilibrium dissociation constant (Kd) was determined as 0.95 nM, the koff was found to be 3.56e-05 s⁻¹ and the kon was 37600 M⁻¹ s⁻¹.

B8: Mutation 1-27 (antibody, V domains shown)
VH: B1 VH with L34V, T98S, F101V
VL: B1 VL with V53L
As for B8, the Kd came out at 0.121 nM, the koff came out at 3.66e-05 s⁻¹ and the kon turned out to be 303000 M⁻¹ s⁻¹.

B9: Mutation 1-25 (antibody, V domains shown)
VH: B1 VH with L34I
VL: B1 VL with V53L
In the case of B9, the dissociation constant (Kd) was 1.09 nM, the off-rate constant (koff) turned out to be 1.78e-05 s⁻¹ and the association rate constant (kon) amounted to 33900 M⁻¹ s⁻¹.

B10: Mutation 1-26 (antibody, V domains shown)
VH: B1 VH with I59L, F101Y
VL: B1 VL with T93Y
For the molecule B10, the Kd worked out at 0.111 nM, the koff was 3.47e-05 s⁻¹ and the kon was 312000 M⁻¹ s⁻¹.

B11: Mutation 1-24 (antibody, V domains shown)
VH: B1 VH with L34V, I59L, F101V
VL: B1 VL with S27T, V53I, T93Y
B11: the dissociation constant (Kd) is 0.53 nM, the koff amounted to 1.74e-05 s⁻¹ and the association rate constant (kon) came to 37700 M⁻¹ s⁻¹.

B12: Mutation 1-29 (antibody, V domains shown)
VH: B1 VH with T98S, F101Y
VL: B1 VL with S27T, T93Y
Turning to B12, the Kd was found to be 0.9 nM, the koff was 3.23e-05 s⁻¹ and the association rate constant (kon) worked out at 35700 M⁻¹ s⁻¹.

B13: Mutation 1-37 (antibody, V domains shown)
VH: B1 VH with L34I, I59L, T98S, F101Y
VL: B1 VL with S27T
For B13, the dissociation constant (Kd) was found to be 0.35 nM, the off-rate (koff) was found to be 1.71e-05 s⁻¹ and the on-rate constant (kon) was found to be 48500 M⁻¹ s⁻¹.

B14: Mutation 1-35 (antibody, V domains shown)
VH: B1 VH with I59L, T98S, F101Y
VL: B1 VL with S27T
B14: the Kd amounted to 1.04 nM, the dissociation rate constant (koff) worked out at 4.35e-05 s⁻¹ and the on-rate constant (kon) was 41900 M⁻¹ s⁻¹.

B15: WT 1-1 (antibody, V domains shown)
VH: B1 VH with D31E, L34I, E54D, F64V
VL: B1 VL with S27T, R30K, D49E, V53I, V57F, W90Q, T93Y
Turning to B15, the Kd worked out at 6 nM, the koff was determined as 2.28e-05 s⁻¹ and the kon worked out at 3770 M⁻¹ s⁻¹.

B16: WT 1-4 (antibody, V domains shown)
VH: B1 VH with D31E, E54D, I59L, F64V, F101Y
VL: B1 VL with R30K, D49E, V53L, V57F, W90Q, T93F
As for B16, the Kd is 11.9 nM, the off-rate (koff) stood at 4.95e-05 s⁻¹ and the kon was 4150 M⁻¹ s⁻¹.

B17: Mutation 1-36 (antibody, V domains shown)
VH: B1 VH with L34V
VL: B1 VL with V53L, T93F
With B17, the Kd came out at 0.34 nM, the koff amounted to 1.53e-05 s⁻¹ and the on-rate (kon) was 44900 M⁻¹ s⁻¹.

B18: Mutation 1-38 (antibody, V domains shown)
VH: B1 VH with I59L
VL: B1 VL with V53I, T93Y
Regarding B18, the Kd stood at 0.36 nM, the off-rate constant (koff) turned out to be 1.37e-05 s⁻¹ and the kon was found to be 37800 M⁻¹ s⁻¹.

B19: WT 1-20 (antibody, V domains shown)
VH: B1 VH with D31E, L34I, E54D, I59L, F64V, T98S
VL: B1 VL with R30K, D49E, V53I, V57F, W90Q, T93Y
As for B19, the dissociation constant (Kd) was 5.3 nM, the off-rate constant (koff) is 1.64e-05 s⁻¹ and the association rate constant (kon) stood at 3120 M⁻¹ s⁻¹.

B20: Mutation 1-33 (antibody, V domains shown)
VH: B1 VH with L34V, I59L, F101Y
VL: B1 VL with S27T, V53I, T93Y
With B20, the equilibrium dissociation constant (Kd) came to 0.99 nM, the koff is 4.68e-05 s⁻¹ and the kon worked out at 47500 M⁻¹ s⁻¹.

B21: Mutation 1-34 (antibody, V domains shown)
VH: B1 VH with L34I, T98S, F101V
VL: B1 VL with V53L, T93F
For B21, the Kd worked out at 0.44 nM, the koff is 1.34e-05 s⁻¹ and the on-rate (kon) is 30600 M⁻¹ s⁻¹.

B22: Mutation 1-41 (antibody, V domains shown)
VH: B1 VH with T98S, F101Y
VL: B1 VL with S27T, V53I, T93Y
As for B22, the Kd turned out to be 0.79 nM, the koff came out at 3.47e-05 s⁻¹ and the on-rate constant (kon) came to 44100 M⁻¹ s⁻¹.

B23: Mutation 1-28 (antibody, V domains shown)
VH: B1 VH with L34I, I59L, T98S
VL: B1 VL with S27T, V53L, T93Y
B23: the Kd amounted to 0.78 nM, the koff came to 2.89e-05 s⁻¹ and the on-rate constant (kon) was determined as 37000 M⁻¹ s⁻¹.

B24: Mutation 1-1 (antibody, V domains shown)
VH: B1 VH with L34I
VL: B1 VL with S27T, V53L, T93Y
On to B24, for which the equilibrium dissociation constant (Kd) turned out to be 0.72 nM, the koff is 2.38e-05 s⁻¹ and the on-rate constant (kon) was 33100 M⁻¹ s⁻¹.
